This is an account of results in the supplement of paper PMC12855868.

B1: library; numbered along this chain (parent)
chain: MAAAGGARLLRAASAVLGGPAGRWLHHAGSRAGSSGLLRNRGPGGSAEASRSLSVSARARSSSEDKITVHFINRDGETLTTKGKVGDSLLDVVVENNLDIDGFGACEGTLACSTCHLIFEDHIYEKLDAITDEENDMLDLAYGLTDRSRLGCQICLTKSMDNMTVRVPETVADARQSIDVGKTS

The data set covers variants of B1. In words: scaled log2 fold change in cell abundance, elesclomol vs control (0 = silent mean, 1 = nonsense mean) (scaled log2 ratio); higher = higher viability under elesclomol (loss of FDX1 cuproptosis function). As to conditions: glucose 10 mM.
[1] abbreviates: with ABC1 FDX1 KO, elesclomol 5 nM, 14 days.
[2] abbreviates: with HEK293T FDX1 KO, elesclomol 40 nM, 11 days.
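Note: variant abundance is its share of total variant reads in each endpoint sample, from next-generation sequencing of the integrated ORF PCR-amplified out of genomic DNA.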

Turning to V85E, the “scaled log2 fold change” value by setting is: under setting [1], -0.055; under setting [2], -0.248.
On the same counts, the results for V85Y are -0.534 and -0.0166.
On the same counts, the results for V85N are -0.0121 and 0.0182.
Turning to V85P, the “scaled log2 fold change” value is, setting by setting: under setting [1], -0.0817; under setting [2], -1.46.
For the variant V85F, the “scaled log2 fold change” value runs as follows: under setting [1], 0.217; under setting [2], 1.05.
On the same counts, the results for G86L are 0.171 and 0.00376.
On to G86W, for which, under setting [1], the “scaled log2 fold change” value worked out at 0.246.
In the case of G86P, the “scaled log2 fold change” value under setting [1] was 0.208 and the “scaled log2 fold change” value under setting [2] came to 0.284.
On the same counts, the results for G86K are 0.242 and -0.0346.
For G86M, the “scaled log2 fold change” value by setting is: under setting [1], -0.125; under setting [2], -0.231.
Consider G86F, for which the “scaled log2 fold change” value under setting [1] was 0.287 and the “scaled log2 fold change” value under setting [2] is -0.571.
In the same order, the values of G86A are 0.349 and 0.0692.
For G86T, the “scaled log2 fold change” value under setting [1] was found to be 0.117 and the “scaled log2 fold change” value under setting [2] was -0.144.
For G86Y, the “scaled log2 fold change” value runs as follows: under setting [1], 0.0464; under setting [2], 0.586.
In the same order, the values of G86S are 0.0131 and 0.985.
In the same order, the values of G86Q are -0.2 and 0.928.
In the same order, the values of G86H are 0.239 and 0.453.
For the variant G86N, the “scaled log2 fold change” value under setting [1] amounted to 0.233.
On to G86V, for which the “scaled log2 fold change” value is, setting by setting: under setting [1], 0.654; under setting [2], 0.478.
Turning to G86E, the “scaled log2 fold change” value was determined as 0.115 under setting [1] and 0.852 under setting [2].
With G86I, the “scaled log2 fold change” value is 0.576 under setting [1] and 0.0646 under setting [2].
On the same counts, the results for G86D are 0.248 and -0.689.
Regarding G86C, the “scaled log2 fold change” value reads like this: under setting [1], 0.175; under setting [2], 1.4.
In the case of G86R, the “scaled log2 fold change” value reads like this: under setting [1], 0.269; under setting [2], -0.218.
On to D87T, for which the “scaled log2 fold change” value under setting [1] was -0.14.
Regarding D87Q, the “scaled log2 fold change” value under setting [1] was -0.303 and the “scaled log2 fold change” value under setting [2] was 0.511.
In the same order, the values of D87G are -0.161 and -0.147.
Regarding D87S, the “scaled log2 fold change” value under setting [1] was -0.493.
For D87Y, the “scaled log2 fold change” value under setting [1] was -0.31 and the “scaled log2 fold change” value under setting [2] is -0.0378.
With D87C, the “scaled log2 fold change” value by setting is: under setting [1], -0.824; under setting [2], -0.252.
D87A: the “scaled log2 fold change” value under setting [1] is 0.0673.
D87P: the “scaled log2 fold change” value is 0.439 under setting [1] and -0.0143 under setting [2].
On the same counts, the results for D87K are 0.34 and 0.127.
Turning to D87R, under setting [1], the “scaled log2 fold change” value is -0.147.
On to D87L, for which the “scaled log2 fold change” value is, setting by setting: under setting [1], -0.301; under setting [2], -0.549.
As to D87M, the “scaled log2 fold change” value by setting is: under setting [1], 0.055; under setting [2], -0.441.
On the same counts, the results for D87I are -0.274 and -0.421.
In the same order, the values of D87E are -0.224 and 0.0766.
In the same order, the values of D87W are -0.221 and -0.509.
For the variant D87V, the “scaled log2 fold change” value was -0.164 under setting [1] and -0.704 under setting [2].
On the same counts, the results for D87F are 0.195 and -0.393.
Take D87N: the “scaled log2 fold change” value under setting [1] was -0.0848.
In the case of D87H, the “scaled log2 fold change” value runs as follows: under setting [1], -0.183; under setting [2], 0.121.
E95T: the “scaled log2 fold change” value under setting [1] was -0.37.
Take E95W: the “scaled log2 fold change” value under setting [1] was 0.0294 and the “scaled log2 fold change” value under setting [2] is -0.33.
On the same counts, the results for E95K are 0.0162 and -0.042.
In the case of E95L, the “scaled log2 fold change” value is, setting by setting: under setting [1], -0.168; under setting [2], -0.709.
Turning to E95F, the “scaled log2 fold change” value was -0.339 under setting [1] and -0.0798 under setting [2].
E95P: the “scaled log2 fold change” value reads like this: under setting [1], 0.178; under setting [2], -0.222.
In the same order, the values of E95V are 0.0731 and -0.123.
As to E95R, the “scaled log2 fold change” value reads like this: under setting [1], -0.296; under setting [2], -0.0027.
With E95I, the “scaled log2 fold change” value was 0.142 under setting [1] and -0.228 under setting [2].
E95Y: the “scaled log2 fold change” value runs as follows: under setting [1], -0.143; under setting [2], -0.228.
For the variant E95C, under setting [1], the “scaled log2 fold change” value is -0.0222.
As for E95A, the “scaled log2 fold change” value is, setting by setting: under setting [1], 0.102; under setting [2], -0.337.
Regarding E95N, the “scaled log2 fold change” value under setting [1] amounted to 0.2.
Turning to E95S, the “scaled log2 fold change” value under setting [1] was 0.146 and the “scaled log2 fold change” value under setting [2] was determined as 0.071.
On the same counts, the results for E95H are -0.106 and -0.636.
In the same order, the values of E95M are 0.0861 and -0.356.
For the variant E95G, the “scaled log2 fold change” value was -0.0448 under setting [1] and 0.982 under setting [2].
In the same order, the values of E95Q are 0.0772 and -0.398.
On the same counts, the results for E95D are 0.126 and 0.1.
